Results from paper PMC5831843, “Creating a more robust 5-hydroxymethylfurfural oxidase by combining computational predictions with a novel effective library design” (Biotechnology for Biofuels, 2018).

B1: HMFO (HMF oxidase) (Methylovorus sp. MP688) (protein)
chain: MTDTIFDYVIVGGGTAGSVLANRLSARPENRVLLIEAGIDTPENNIPPEIHDGLRPWLPRLSGDKFFWPNLTIHRAAEHPGITREPQFYEQGRLLGGGSSVNMVVSNRGLPRDYDEWQALGADGWDWQGVLPYFIKTERDADYGDDPLHGNAGPIPIGRVDSRHWSDFTVAATQALEAAGLPNIHDQNARFDDGYFPPAFTLKGEERFSAARGYLDASVRVRPNLSLWTESRVLKLLTTGNAITGVSVLRGRETLQVQAREVILTAGALQSPAILLRTGIGPAADLHALGIPVLADRPGVGRNLWEHSSIGVVAPLTEQARADASTGKAGSRHQLGIRASSGVDPATPSDLFLHIGADPVSGLASAVFWVNKPSSTGWLKLKDADPFSYPDVDFNLLSDPRDLGRLKAGLRLITHYFAAPSLAKYGLALALSRFAAPQPGGPLLNDLLQDEAALERYLRTNVGGVWHASGTARIGRADDSQAVVDKAGRVYGVTGLRVADASIMPTVPTANTNLPTLMLAEKIADAILTQA

Legend:
[1] = system: T1, O=Cc1ccc(CO)o1; assay: purified protein; type: biochemical, Methylovorus sp. MP688; settings: 50 mM phosphate pH 8.0, 25 °C, O2 as electron acceptor
T1 construct: full-length, N-terminal His6x-SUMO fusion kept, recombinant from E. coli (pET SUMO / pBAD SUMO), FAD-containing

[2] = substrate: O=Cc1ccc(CO)o1; assay: purified protein; settings: 50 mM phosphate pH 8.0, 25 °C, O2 as electron acceptor

| Molecule | Km [1] [µM] | kcat [1] [s⁻¹] | kcat/Km [1] [M⁻¹ s⁻¹] | Km [2] [µM] | kcat [2] [s⁻¹] | kcat/Km [2] [M⁻¹ s⁻¹] |
| --- | --- | --- | --- | --- | --- | --- |
| HMFO (HMF oxidase) (Methylovorus sp. MP688; A419Y/A435E/G356H/H74Y/I73V/T414K/V367L) | 630 | 11.8 | 18700 |  |  |  |
| B1 |  |  |  | 1520 | 13.7 | 9030 |
